Data set [1] can be described thus: plasma insulin pharmacokinetics during euglycemic clamp. In kind it is in vivo, human. Particulars: Without InsuPatch activation, 0.2 unit/kg s.c. bolus, mean±SEM.
Data set [2] concerns adolescents with type 1 diabetes. Kind of data set: euglycemic clamp, pharmacodynamics. In kind it is in vivo, human. The note with it: difference with vs without InsuPatch activation; 0.2 u/kg bolus.

These results are taken from article PMC3572265 (Pediatric diabetes, 2012).

Consider aspart insulin, for which, in data set [1], the “time to reach maximum increments in plasma insulin” value is 67 ± 10 min. Also, the “TGIRmax earlier with IP activation than without” value in data set [2] came to 35 min.
